{
  "source": "the domain aggregation screens of Martell et al. (2025)",
  "data": [
    {"assay": "soluble fraction after stress (log2 fold change); higher = more stays soluble; pooled small domains, quantitative proteomics", "conditions": "stress: pH 4", "outline": "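Values are log2 fold changes, and higher ones mean more of the domain stayed soluble. Each fold change reflects the soluble amount of a domain after acid stress and is taken as a measure of aggregation propensity. The stress was pH 4, applied to pooled custom libraries of small protein domains analysed by high-throughput quantitative proteomics.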", "values": [
      {"sequence": "HMDISAFDTEFIISKFGGIRPMAQKLGVPVSTVQGWKQRQTIPQNRMGDILEAAKNYNLELTP", "soluble fraction (log2)": 0.114},
      {"sequence": "HMDISPAAKQRLALIQPLLEKNAEAITDRKLRNAVAKDIANNQNTTVRRVLRLYYRYLATGQVM", "soluble fraction (log2)": 0.158},
      {"sequence": "HMDIVIPIQVKNVSSGEVLDFPSIRAAARDLKFPKTTISLGVRYAGEKAYKGFVMRYRSDDPWPIVQES", "soluble fraction (log2)": 0.103},
      {"sequence": "HMDIYLDEVNRKILHLLSQGIKTRSLREYINLSMSAIEKRKKHMKELFLVEDGKDETLLNEARNKGF", "soluble fraction (log2)": -0.64},
      {"sequence": "HMDIYLTAFKTTSNQVTLNGIARSDLIISEFMRDIRDAKLFGEPVLQVIQNKNLNNVQARVFELVVPL", "soluble fraction (log2)": -0.399},
      {"sequence": "HMDKATMRWEQIEKFLETHPYIMNADVRALFNVSAATANRILATLTTEGKLVKYREGGHWAYKY", "soluble fraction (log2)": -0.217},
      {"sequence": "HMDKELILLWDRVKSKVWQMDIQDSQVANWFQRNYHLTVRLRDFDPPVPPDKFTAEQLASFIKDIERHT", "soluble fraction (log2)": -0.000327},
      {"sequence": "HMDKGMQTMIDNLHKNTGKTLEEWIALVNRANFAKHGEVISFLKEKHGLTHGYANLVAHRLK", "soluble fraction (log2)": -0.361},
      {"sequence": "HMDKINQEAIEDEAGLWLAKIDGRQLAQEEVRELIAWMRRSDFHREYLITLARQWDGMAALNKLATLFP", "soluble fraction (log2)": -1.4},
      {"sequence": "HMDKLFNRQTLGGVELTQKQIEDLNAGKAIFVEGMQRKDGEVFSSYVKLDEATGRPSYTRYNPDSP", "soluble fraction (log2)": 0.0109},
      {"sequence": "HMDKLSYALGLSMGHNFLGSGIKSLNVEDFAKGVEAVYKQEKPEISFDEAKKIINEFFSNLQDEIAE", "soluble fraction (log2)": -1.33},
      {"sequence": "HMDKNLQYADTPKGKLREYIKNLPNGSTVNRQKLAEEFGIKKQSMGTVTEVFQEFPDKNFKFVNP", "soluble fraction (log2)": -0.157},
      {"sequence": "HMDKPVIEDVSFDDLAYMVGERVIIRTHLRSTRDGELKSFNRAGILVSLRNRPGMELEIPRSTVASAQVVW", "soluble fraction (log2)": -0.744},
      {"sequence": "HMDKQEKIHKKKIIILEALKRLLQNDVYSRITVQAVADEAGFSKGGLLHYFPTKEEMYIEFMEY", "soluble fraction (log2)": 0.092},
      {"sequence": "HMDKRYYYRILGLVGEPTRDQIEAAYETRIAKLRSSDYGDDPLYARRKISEVTMAYKVLTGS", "soluble fraction (log2)": 0.139},
      {"sequence": "HMDKSFLQSLHLIALGIVKNQMDPWELVNGWVEYYLKNKDKYIDHPNLKAVAVLKMKGLFIDHFRKS", "soluble fraction (log2)": -2.21},
      {"sequence": "HMDKSHYEELGVSRTATHAEIRRAYRHLMRTLHPDSNDGRVDAVRITKVNEAWNVLSQSSSRNAYDKSQV", "soluble fraction (log2)": -0.0249},
      {"sequence": "HMDKTTIKNEQKKQILIFAEMNLFFKAKDVAELLGLQASRARYLLQELVKDGKIQGIGNNKGRKYQLI", "soluble fraction (log2)": -0.591},
      {"sequence": "HMDKVEQLMQNPVIQEKMSEGDRELLRNASLVVLGRLEDDGSIIQRFVELFGEEAYERLKSELM", "soluble fraction (log2)": -0.865},
      {"sequence": "HMDLDIGSVLQASRGEKKISLRQLAERTGLTASMLSQIERNLVNPSINTLKVIAAALEIPMYKFFMG", "soluble fraction (log2)": -0.583},
      {"sequence": "HMDLEMLEVEDTIKDLLSQHQKINAIKYYRNYMSEQLNVDMGLRQAKDTIDAIGRGATVDLSVGY", "soluble fraction (log2)": -0.783},
      {"sequence": "HMDLIEVLAQDTIKKIYNTYVAYKNKVDVFYVAFSGGKDSIVTLDLVQRTLPHNEFKVLFGDTGM", "soluble fraction (log2)": -0.48},
      {"sequence": "HMDLIFQKGDLVFSTEHNQRGIFYEYLEQGQAKISIEKQFFVVAARRLQLLTKREVLYPAGYDLDQLFV", "soluble fraction (log2)": -1.05},
      {"sequence": "HMDLKENQHILQISNKGVQMGNVLKDLIIQTLNITNGNQIKAAKLLAISRAKLRYRIEQLGINISGKNI", "soluble fraction (log2)": 0.0187},
      {"sequence": "HMDLKHNQITMRELLRNKQAYLLLYKEFPMFMTPAILQNIRPLTLQQIIQMVRPYISRPKLNMLLEQLENI", "soluble fraction (log2)": 0.22},
      {"sequence": "HMDLMQRVIIVRPVMQGDYLTRAHLGLQTLSRNGGGGFTDIDDLVGRRAKKSLRAGLVVHNRHL", "soluble fraction (log2)": 0.124},
      {"sequence": "HMDLPAEFSKPELETLFKRGKQSGELSLTEVRDALEAAQLPNKKTQTKVLKVLSDNAIHVLMDG", "soluble fraction (log2)": 0.0785},
      {"sequence": "HMDLPDFTSRERDILARVVQGDSNERIAASLGVSVSTVKTHIGNILRKTGQTNRVRLIVWATRHL", "soluble fraction (log2)": -0.37},
      {"sequence": "HMDLPDYYFRVRENGAVVFRVGTENRQRRIEMVEIATVNVKNGNIKPHGEVDLTKADRLAIGEWLAARQAQ", "soluble fraction (log2)": -0.27},
      {"sequence": "HMDLPRQSQYQALVVSYARRAGIDEAEEDLLAAFEVWRMRHNHDLAGGRTARDFILAYLPQYQRHKE", "soluble fraction (log2)": -0.59},
      {"sequence": "HMDLQNIQNQLNTEFAKSDTRIIFWFDDKGEYEDEVSELQLGDVKLHILDGLNWFYSKYLLNEA", "soluble fraction (log2)": -0.467},
      {"sequence": "HMDLRAPKPIKEMGEEYIKLYQYLRKGESENIVMSKMNISLDDYDYMRSEIEDKLSLYNMLDLLRKP", "soluble fraction (log2)": 0.0296},
      {"sequence": "HMDLRVKRTNKMIMEAFIHLVEQKGYDNITVQEIADEAMINRATFYAHFKDKQDLYDHIFKQAI", "soluble fraction (log2)": -1.33},
      {"sequence": "HMDLSPEQAELAAIRGELGIKIDDYALALNIPRDRLTSYLYGRANVPAEVLISARELRYASSA", "soluble fraction (log2)": -0.128},
      {"sequence": "HMDMQNIQKGLSAIEPGRTFSREEYYAAIQNGSEMLLKEDALAYSLRKSLSDGDIVRVSWNQYAIP", "soluble fraction (log2)": -0.909},
      {"sequence": "HMDMTPEEFLAWARHKPFGDPFPKTQTVTFLVPLLGVSRTNIFTWISGKVNPSKTSLLLMEALKRENR", "soluble fraction (log2)": -0.444},
      {"sequence": "HMDNEIEQIVEDLNLTLSSLKYTKNQIESILPLIIKEIDDFKKKEKNISFENLLKLAMNHLDND", "soluble fraction (log2)": -1.16},
      {"sequence": "HMDNEIRIPLPSLQRDGFSIGTREDDGSQLVRIMSAGSFGGMIRSFRLPEGMRIEGAKWEGEIVSIRL", "soluble fraction (log2)": -0.0291},
      {"sequence": "HMDNEVTIAVQVNGKLRDKLIVALDTPNEKIEQLALALPKVIQNTSGLTVRKVIVIPNRLVNIVA", "soluble fraction (log2)": 0.123},
      {"sequence": "HMDNIKRGEMFYISRGGASYSGSEQHSDRPAVVVSNDKNNENSNVVEVVYMTTQPKTDLPTHVTVR", "soluble fraction (log2)": -0.0773},
      {"sequence": "HMDNLKELDEILETYGKKKGYLITILQKAQDAYGYISIDIMNRISEFTGIKVAKIYGVATFYAQFRL", "soluble fraction (log2)": -0.651},
      {"sequence": "HMDNPLSQQEKRILQLISLGKTNQEIADILYLSNGTVRNYISSILNKLSANNRVEAARIAEEHGW", "soluble fraction (log2)": -0.929},
      {"sequence": "HMDNPNVMAQVKSLLASKGLSEQEVKERLKAKGLNIDAMSDAEIAQNRSVIEQTIAELEAEKKKAG", "soluble fraction (log2)": 0.287},
      {"sequence": "HMDNPYEVFIPNSYIGQRLDQTLASLFPQFSRSRLQNWLASGNLLVNGKIVKPKTKILGGEQINILDPYN", "soluble fraction (log2)": 0.17},
      {"sequence": "HMDNTFEEVKEKLLDLLKERPLTPAEVSKRMEEDKNILAQVIQYLLEEEIIKTEDGMLSKVIG", "soluble fraction (log2)": -0.0649},
      {"sequence": "HMDNWYIAFNSFLSQNKLTAKNVSELTGLSKPTIDSYKQGKRKPTDENMQIIKDKLGFNISEILYN", "soluble fraction (log2)": -0.576},
      {"sequence": "HMDPDDEILINIMTKLLTEKQIIIKNKEIFNFLLKRINRTYEEVYNLINKMDKLSLEKKKQLTIPSIKEL", "soluble fraction (log2)": -1.52},
      {"sequence": "HMDPEEETLKNMQRMLQDSGPLKKTEFSLLAKSLGIAEKKARKLIDRGRGRFWTVESGEQKNTQLVTPIQ", "soluble fraction (log2)": -0.261},
      {"sequence": "HMDPERVVGQTGIVHLRIPARQHNTGKVMIEVQGSLREFDAVSEAEEIPTGTPILIVGRTEEGVFIAQPF", "soluble fraction (log2)": -0.823},
      {"sequence": "HMDPGPVLISAQVLDDLEAIRRDGSSNMLDWPAVARLAEVMGMDRTAAWVRTHHREYSAGIFRGFASD", "soluble fraction (log2)": -0.744},
      {"sequence": "HMDPHEEELLRQLIRGDIAGYEVLFHKYYPTFFAFIKGMTKETVVAEDITQNIFMKVWLNRERLDAA", "soluble fraction (log2)": -0.535}
    ]}
  ]
}
